In the supplement of paper PMC9170038:

Tested on: K4 kissing-loop RNA reporter
Test: apparent KD of K4 kissing-loop reporter; higher = weaker reporter binding
Conditions: Eterna round: R107
Description: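 RNA-MaP round R107: designed RNA switches with theophylline, tryptophan, arginine or FMN aptamers are transcribed on-chip within common flanks. They are titrated with a labelled K4 kissing-loop RNA reporter in RNA-MaP buffer (100 mM Tris pH 7.5, 80 mM KCl, 4 mM MgCl2), without ligand or with the indicated ligand. Median apparent KD per design.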

[1] = input ligand: theophylline 20 uM
[2] = input ligand: tryptophan 2.4 mM
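Note: bound reporter read as fluorescence of individual clusters on recovered sequencing chips by microscopy, with normalized cluster intensities fitted with a binding model.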

Sequence | apparent KD of K4 kissing-loop reporter (input ligand: FMN 200 uM) [nM] | apparent KD of K4 kissing-loop reporter (input ligand: arginine 13.2 mM) [nM] | apparent KD of K4 kissing-loop reporter (input ligand: none) [nM] | apparent KD of K4 kissing-loop reporter [1] [nM] | apparent KD of K4 kissing-loop reporter [2] [nM]
CUUGGUCUACGAAGGAGCGCCGUGCAGUGAUGUUGCAGUCAGAUCGAGUGAUGUUUCGGGCGGCAGGUAGGUCGCGUGGCCCUCU [Excusion Arginine B GF 27] | 574 | 437 | 725 | 692 | 591
AAGCCCAGUGAUGUUGGAAGCGCGUACGAUACCAGCGAAUCGGAACGCCCUUGGCAGCGUACAGAGUUGGCGGAAGAUAGGACAG [theeternabot_sameState_KL_Theo_A_14] | 548 | 507 | 643 | 637 | 527
CGAGUGAUGUUCGUUCGUUUAUUUUUUUGACAGGAUAUGCGGAAACGCAGAAGGGUCACCUUUGAGUUAAAAGAAUUUACGUUAU [Ex FMN A 25] | 460 | 475 | 576 | 465 | 414
UGAUACCAGACUGAUACCAGCCAGUGAUGUUGGCUGAAAUCAGGGUCAAAGACCCUGUCUGGCCCUUGGCAGCAGUCUGGUAUCU [TheoBX 19 #SwitchBubble #StaticStem] | 329 | 251 | 291 | 332 | 281
AAACAUCACUGGGAGUGAUGUUCUCAGUGACGAGGACCGGUACGGCCGCCACUCGCGAGAGAACUAGUCUAGACUUGACUGCAUU [Excl Tryptophan A V14] | 386 | 366 | 356 | 425 | 428
GCAGUGAUGUUGCACGAGUACGGUAGAGUACGAGGACCGGUACGGCCGCCACUCGUACGGAACUGGCUAAUUUAUGGAAUGGUGA [II] | 383 | 463 | 1440 | 477 | 365
UUUUUAAUCGCAGAUACCAGUCCAGAAUAAAUACUAUAGUGAUGUUAUAAAUAAGGAAAGGACCCUUGGCAGCUGUACUAUAUUU [AstrosSsTheB#7] | 433 | 465 | 668 | 372 | 524
ACAGAGGUAACCUGCAGUGAUGUUGCGGAUACCAGCUCACGAAACAGCCCUUGGCAGCCGCCGUCACUAACACGGUGGAUACAGU [theeternabot_exclusion_KL_Theo_A_49] | 257 | 168 | 230 | 178 | 181
GUAGCUUGGCUAGGAUAUUAGCGUAGGAGUGAUGUUCCGACUAGCGAAAGCUAGUCUCACGCUAGUUAAGAAGGAGCCAAGCUAC | 263 | 172 | 175 | 181 | 174
AAGGGCGGGACUUUCUCGCCGGAUAGAGAUACCAGCCCAGCAAAGGGCCCUUGGCAGCUCACUGACCUCAGUGAUGUUGAGGUUC [Soerrainat] | 295 | 240 | 242 | 199 | 266
ACGUGCACCAGUGAUGUUGGAAAAUAUGAAGGAGCGGGCGAAAGCCCAGGUAGGUCGCAUAAUAGCACGAGCCACGAAAGUGGCA [#SwitchBubble 20 #K4Early] | 125 | 137 | 184 | 132 | 126
GUCCCAGUGAUGUUGGUAGGCGAGCGGGAUACCAGCCAAGACUCAGGCCCUUGGCAGCCCACAUAUCCCACGUAGGGAGUAGCUC [Same State - Theophylline A (Freestyle 18)] | 269 | 172 | 210 | 274 | 209
GGGUGGUAGGCGGCCGCCACUCUGAGCACCCACUGAGUGAUGUUCGUGGCGUAAGCCUGUUCUUAGAGGACCGGGUUUGUUGUUC [Exclusion Tryptophan B GF 17] | 207 | 88 | 178 | 128 | 144
ACAUGUGCCAGUGAUGUUGGCGUACGUGAUACCAGACGAAUAAAAGUCCCUUGGCAGCACAAAUAAGCCAAGAUAGAUGAAUGAU [#03 K4 Theophylline A Exclusion] | 191 | 159 | 203 | 242 | 189
AAAUAUAGUGAUGUUAUAUAUAUAUGUGAUACCAGAGAAAAGAAACUCCCUUGGCAGCACGAGAGAGAAUUUUUUUUUUAUAUAU [AstrosSSTheA#2] | 370 | 409 | 498 | 471 | 328
CCAUAUUCGUCGGCCGCCACUAUAAGCCAUCAUACAUUGGCUCUGUGAAAGUGAUGUUUUCUUGAUAGGACCGGGACUGUCAGCA [theeternabot_sameState_KL_Trp_B_24] | 975 | 739 | 1020 | 903 | 646
UCGGAUGUUCUGUCGAGAUGAGCAAUAGCACGAGGACCGGUACGGCCGCCACUCGACCCAGUGAUGUUGGGUGGCUAAGUUCAGC [Geragean] | 265 | 239 | 208 | 285 | 147
CGAGUGAUGUUCGUUCGUAUAUUUGGGUGACAGGAUAUGCGGAAACGCAGAAGGGUCACCUUCGGGUUACCCGAAUUGGCGUUAU [Model 1] | 372 | 275 | 427 | 322 | 298
AUGUCUGAUAGCAGUGAUGUUGCUUCGGAUACCAGACGCGAUCAUGUCCCUUGGCAGCUGACACGGCACGUGCUAGGUUAGAUGG [whbob_Ex_Theo_A_th74] | 123 | 94.5 | 105 | 112 | 95.9
UGUCAUUGGUCGGCCGCCACUUGAAGGUCAAAGACCAUAGAGUGAUGUUCUAAGACGAAAGUCACGAGGACCGGGACCGAUGACU [TrypBS 4 #SwitchBubble #K4Middle] | 57.7 | 195 | 114 | 351 | 1130
AAGUGUUCUAGUGAUACCAGACAAUUUUAUUUUUUCUUUUUUGCUAAGUGAUGUUUAGCAGUCCCUUGGCAGCACUAUUUCACUA [JR_SSTheophyB_Sub018] | 129 | 109 | 106 | 147 | 128
CGAUCUUGGUCGGCCGCCACUACACCCACACCAAAUAGGAAAGUAGCGAGUGAUGUUUGUGACGUUAGGACCGGGACCACUGGUC [theeternabot_sameState_KL_Trp_B_25] | 586 | 321 | 526 | 564 | 392

Sequence | apparent KD of K4 kissing-loop reporter (input ligand: FMN 200 uM) [nM] | apparent KD of K4 kissing-loop reporter (input ligand: arginine 13.2 mM) [nM] | apparent KD of K4 kissing-loop reporter (input ligand: none) [nM] | apparent KD of K4 kissing-loop reporter [1] [nM] | apparent KD of K4 kissing-loop reporter [2] [nM]
AACGCCACCGCGGAUACCAGAGCCAGUGAUGUUGGAUCUGGAAAUUCGUGGGUAAGCUGGCUCCCUUGGCAGCUGCGGUUCUUUU [Tiisaron] | 134 | 112 | 114 | 131 | 109
UCCAGCAGUACUGAUACCAGACUGCAUGUAGUGAUGUUGCAUAAGGGCAUAGAUGUCUCAGUCCCUUGGCAGCAGUACUGUUGCA [Theo B SS t1] | 317 | 239 | 284 | 191 | 257
GUAUCGCUAGGAGGAUAUUCCAUUUUACAUAUAAAUGGAUAUGCGGAGUGAUGUUCCGAUUUACGGGAAGAAGGCCUAGUGAUAC [FMN B 20] | 138 | 220 | 219 | 256 | 208
AGAUAGGGCUGAAGGAGCGUCGGAGAAGAAAAGAAGAAAUCCAGUGAUGUUGGAUAAAUCCGACAGGUAGGUCGCAGUUUUAUGA [hbob_SS_Arginine_B_2t136] | 109 | 116 | 127 | 140 | 119
AUUUUUUUAUCAGGAUAUUAGUGAUGGUUUUUUUUGUUAGUGAUGUUGAUAUUUGUUUUAUGUAUUUAAGAAGGGAUUGAGAUGU [tzzsullin] | 120 | 41.2 | 56.9 | 64.4 | 84.2
UGGAGUUGACGAAAAGUCAACUCCUGAGAAGGAGCGGACGAAAGUCCAGGUAGGUCGCUCACUACCAGUGAUGUUGGUACUUUAA | 228 | 285 | 320 | 361 | 222
GGCGGGUGCCCGUAAGGGUGCCCGGCCGAUACCAGCGCGACGGCGCGCCCUUGGCAGCGGCGCCGAGUGAUGUUCGGCCUGCCGU [#2 Same State - Theophylline A Attempt #24 (HarryS)] | 92.7 | 105 | 90.6 | 84.5 | 151
UUUCUUUUCUUUUGCGAUCCUAUCCCUUAUAAGGAUAUCUAGAAAUAGAGAAGGUAUGCAGUGAUGUUGCUUGGGAUAGGAUCGC | 311 | 275 | 301 | 277 | 241
CUCUGCUUCCCAGGGCUAGUGAUGUUAGCCCGAGGACCGGUACGGCCGCCACUCGAGUUAAGCAUCGACCGUGAAUGUUCGAAGC [theeternabot_exclusion_KL_Trp_A_48] | 138 | 143 | 139 | 179 | 140
GGUAGUGCUAGCGAUACCAGUCAUAUCGCUCUGGAGUGAUGUUCCGGAACGUGCGGAGAAGACCCUUGGCAGCGCUUGACUGGAA [Exclusion Theophylline B GF6] | 758 | 539 | 574 | 538 | 736
UGUGUUGUAUGACGGUUUGUCACUUAGUAUUAGGAUAUAUAAACAAAUAGAAGGGAUGGCGGAGUGAUGUUCCGCCGGCCGCCAU [FMN A Exl V10] | 92.3 | 92.9 | 80.8 | 94 | 97.6
GGAGUUACCUGGGAUACCAGUCGGAGUCCGAGAGCUCGGAGUGAUGUUCUGGGAUGUUUCGGCCCUUGGCAGCUCUGGGACUCCC [#2 Exclusion - Theophylline B Attempt #10 (HarryS)] | 220 | 181 | 241 | 249 | 198
UUAGUCUAGAGAAGGAGCGAGUGAUGUUCGCAUGAUCUCAUGAUAUCAUGAGAUCGAAAUCCUCAGGUAGGUCGCUCUAGACAUU [AK6 Exc Arginine B] | 493 | 372 | 534 | 424 | 545
GUAGUGAUGUUACGAAUAUUCCAUCAUAGAGAGGAUAUUGUUCCUUCGAGAAGGUUCUGAGAAUUAAAAUUUAAUAAAAUGAAGG [Exclusion FMN A GF 1] | 246 | 302 | 277 | 357 | 160
AUGCGCGCGGCGGCCGCCACUCGCAUGAGAGUGAUGUUCUCGCCGUGACCGUAAGGUCGCGGUGUGAGGACCGGGCCGGGCUGCG [#2 Same State - Tryptophan B Attempt #22 (HarryS)] | 197 | 71.5 | 69.7 | 213 | 321
GCCGUACGCAUGGAUACCAGCACACAACGAAGUGAUGUUUCGUGCGUAGAUUUGUGCUACUGCCCUUGGCAGCCAUGCGUACGGC | 86.6 | 69 | 82.2 | 69.3 | 78.6
ACAUCGGUUGAGAGUGAUGUUCCUUGUGUUCGAGGACCGGUACGGCCGCCACUCGGGUAGAAAAUAACAGAUGUGUUUGAUUUUU [BDazzled - #16 SS Tryptophan A] | 163 | 88.4 | 144 | 308 | 244
CCACUAUUCUUGUCGGAGUGAUGUUCCGAUACCAGCAUAGAGAUGUGCCCUUGGCAGCGGUCUAUUCUACGCCCGUCUAUUUCAA [Somari] | 165 | 125 | 135 | 157 | 148
CCUAUCUCAUACGAUACCAGUGAAUAACCAGUGAUGUUGGAAUAACCAAGGAAUAUUUUUCACCCUUGGCAGCGUAUGGGAUAGG [Ex Theophylline B K4 27] | 492 | 285 | 378 | 385 | 312
UGCAGUGAUGUUGCUAUUUGUCUUGAUUAACGAGGACCGGUACGGCCGCCACUCGAUUUCUCUCUAAUCGGGUAUGUUGUUUAGU [#20 K4 Tryptophan A Exclusion] | 154 | 200 | 170 | 187 | 119
GCGCAUGUUAAAGGAUAUAGCAGGUGAUACAAGAAAGUGAGUGAUGUUUAUGUAGAUGAUGAUAUGUUAGAAGGUUAACAAAAGC [abcdefghijklmn] | 717 | 624 | 674 | 691 | 434
